This note sets out measurements from PMC6385258.

The target of assay [1] is EGF receptor (EGFR) (human (endogenous in MDA-MB-231, MCF-7, MDA-MB-468)) (UniProt P00533). As to the kind of experiment: flow cytometry on cells; MDA-MB-231 cells in suspension; QD-EGF 0.06-120 nM (EGF:QD = 0.33) or dye-EGF 0.02-40 nM; 4 °C, 4 h with rocking; PBS with 0.5% BSA; nonspecific binding measured with 2 µM unlabeled EGF and subtracted; one-site fit. Background: Flow cytometry measures light scatter and fluorescence of single cells or particles in a stream.

Assay [2] shares this target. The assay can be described thus: single-molecule counting of quantum dots by calibrated 3D deconvolution microscopy (QDC-3DM); unpatterned MDA-MB-468 cells (high EGFR expression); 1 nM QD-EGF for 5 min on ice; washed and fixed.
The target is the same in assay [3]. The assay can be described thus: single-molecule counting of quantum dots by calibrated 3D deconvolution microscopy (QDC-3DM); unpatterned MDA-MB-231 cells; QD-EGF at 0.1, 1, 10 or 100 nM for 5 min on ice in serum-free DMEM with 0.8% BSA; washed and fixed.
The target is the same in assay [4]. The assay can be described thus: single-molecule counting of quantum dots by calibrated 3D deconvolution microscopy (QDC-3DM); MDA-MB-231 cells on fibronectin micropatterns; 1 nM QD744-EGF pulse for 5 min, washed, kept in serum-free medium; counted 10 and 30 min after the start of the pulse; also with gefitinib 0-5.1 µM.

By Kd is commonly meant a measure of binding affinity in units of concentration. Read a high Kd as lower affinity.

“EGF conjugated to a single tetramethylrhodamine dye (ligand)”: the equilibrium dissociation constant (Kd) in assay [1] was 3.2 nM.
Substance “QD-EGF conjugate: epidermal growth factor with a single N-terminal biotin bound to a streptavidin-conjugated quantum dot (ligand)” returned a mean EGF bound per cell (1 nM QD-EGF) in assay [2] of 922 EGF per cell. In assay [3], this substance displayed a QD-EGF counts per cell (0.1, 1 and 10 nM QD-EGF) of 0 to 4000 per cell; a mean EGF bound per cell (1 nM QD-EGF) of 80 EGF per cell. Further, in assay [4], the EGF per cell (1 nM QD-EGF) is 1270 EGF per cell and the QD-EGF per cell 30 min after the start of a 5 min pulse was 800 per cell.
